# Reference: publication PMC2978110, “EBP1 Is a Novel E2F Target Gene Regulated by Transforming Growth Factor-β”
# Positions count from the first letter of the chain named. Names may count otherwise.
# B1: DHFR E2F site mutant (dsDNA)
# DNA 1: CTAGAGCAATTTAAAAACAAACTTGGATC
# DNA 2: GATCCAAGTTTGTTTTTAAATTGCTCTAG
# B2: EBP1 -136 probe (-136 to -100) (dsDNA)
# DNA 1: TAGTTCGAAGGCCCTCGAGAGCGGCTAGAGTCTGG
# DNA 2: GCAGACTCTAGCCGCTCTCGAGGGCCTTCGAACTA
# B3: EBP1 -155 probe (-155 to -120) (dsDNA)
# DNA 1: GAGCTTCGAACTACAATTCCCAGCCTGCCTCTCGCGCTG
# DNA 2: CAGCGCGAGAGGCAGGCTGGGAATTGTAGTTCGAAGCTC
# B4: N-myc E2F site (dsDNA)
# DNA 1: GATCCTTTTGGCGCGAAAGGCTTAGATC
# DNA 2: GATCTAAGCCTTTCGCGCCAAAAGGATC
# B5: EBP1 -166 (-158*) (dsDNA)
# DNA 1: TTAGGAAAAAAAGAGGCAGGCTGGGAATTGTAGTTCGAAGGCCCTCGAGAGCGGCTAGAGTC
# DNA 2: GACTCTAGCCGCTCTCGAGGGCCTTCGAACTACAATTCCCAGCCTGCCTCTTTTTTTCCTAA
# B6: EBP1 -166 (both*) (dsDNA)
# DNA 1: B5 DNA 1 with G51A, C52A, G53A, G54A, C55A
# DNA 2: B5 DNA 2 with G8T, C9T, C10T, G11T, C12T
# B7: EBP1 -166 wt (-166 to -104) (dsDNA)
# DNA 1: B5 DNA 1 with A7G, A8C, A9G, A10C, A11G
# DNA 2: B5 DNA 2 with T52C, T53G, T54C, T55G, T56C
# B8: TIMELESS E2F site (dsDNA)
# DNA 1: CAGAAAATTCATAGCGCTGTGATTTTTAGATC
# DNA 2: GATCTAAAAATCACAGCGCTATGAATTTTCTG
# B9: TIMELESS E2F site mutant (dsDNA)
# DNA 1: B8 DNA 1 with G14A, C15A, G16A, C17A
# DNA 2: B8 DNA 2 with G16T, C17T, G18T, C19T
# B10: EBP1 -158* (dsDNA)
# DNA 1: GCTTAGGAAAAAAAGAGGCAGGCTGGGAATTGTAGTTC
# DNA 2: GAACTACAATTCCCAGCCTGCCTCTTTTTTTCCTAAGC
# B11: EBP1 -168 probe (-168 to -130) (dsDNA)
# DNA 1: GCTTAGGAGCGCGAGAGGCAGGCTGGGAATTGTAGTTC
# DNA 2: GAACTACAATTCCCAGCCTGCCTCTCGCGCTCCTAAGC
# B12: DHFR E2F site (dsDNA)
# DNA 1: CTAGAGCAATTTCGCGCCAAACTTGGATC
# DNA 2: GATCCAAGTTTGGCGCGAAATTGCTCTAG
# B13: EBP1 -166 (-113*) (dsDNA)
# DNA 1: TTAGGAGCGCGAGAGGCAGGCTGGGAATTGTAGTTCGAAGGCCCTCGAGAAAAAATAGAGTC
# DNA 2: GACTCTATTTTTTCTCGAGGGCCTTCGAACTACAATTCCCAGCCTGCCTCTCGCGCTCCTAA
# B14: EBP1 -113* (dsDNA)
# DNA 1: TAGTTCGAAGGCCCTCGAGAAAAAATAGAGTCTGG
# DNA 2: GCAGACTCTATTTTTTCTCGAGGGCCTTCGAACTA
# Experiments:
# GST-E2F1 [1] = biological target: T1, GST-E2F1 (UniProt Q01094 1-437); experiment: competition; 100-fold excess vs EBP1 -158 and -113 probes; EMSA as in ref 34 (buffer, pH, temperature not given); 1.8 ug GST-E2F1 per reaction, 24 ng/ul ds mutant adenovirus E2 E2F-site oligo as nonspecific competitor; conditions: protein: recombinant, blunt
# T1 sequence (Q01094 whole entry): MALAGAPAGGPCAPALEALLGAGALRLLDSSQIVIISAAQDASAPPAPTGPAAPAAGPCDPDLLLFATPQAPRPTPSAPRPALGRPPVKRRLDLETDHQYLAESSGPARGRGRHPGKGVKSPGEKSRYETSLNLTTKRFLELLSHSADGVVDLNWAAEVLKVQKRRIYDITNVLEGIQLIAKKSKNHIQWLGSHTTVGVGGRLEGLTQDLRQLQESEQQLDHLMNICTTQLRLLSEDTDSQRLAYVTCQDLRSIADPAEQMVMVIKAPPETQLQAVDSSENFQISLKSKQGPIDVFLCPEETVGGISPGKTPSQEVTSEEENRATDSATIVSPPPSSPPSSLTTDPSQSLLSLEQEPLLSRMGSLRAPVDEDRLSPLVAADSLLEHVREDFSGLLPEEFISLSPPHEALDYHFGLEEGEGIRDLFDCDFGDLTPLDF
# GST-E2F1 [2] = biological target: T1, GST-E2F1; experiment: EMSA; EMSA as in ref 34 (buffer, pH, temperature not given); 1.8 ug GST-E2F1 per reaction, 24 ng/ul ds mutant adenovirus E2 E2F-site oligo as nonspecific competitor; conditions: protein: recombinant, label: 32P
# GST-E2F1 [3] = biological target: T1, GST-E2F1; experiment: EMSA; additional low-mobility complex; EMSA as in ref 34 (buffer, pH, temperature not given); 1.8 ug GST-E2F1 per reaction, 24 ng/ul ds mutant adenovirus E2 E2F-site oligo as nonspecific competitor; conditions: protein: recombinant; label: 32P; blunt
# GST-E2F1 [4] = biological target: T1, GST-E2F1; experiment: competition; 100-fold excess vs EBP1 -158 and -113 probes; substantially reduced; EMSA as in ref 34 (buffer, pH, temperature not given); 1.8 ug GST-E2F1 per reaction, 24 ng/ul ds mutant adenovirus E2 E2F-site oligo as nonspecific competitor; conditions: protein: recombinant; blunt
# [5] = terminal G:G mismatch as printed
binder,measurement,setting,value
B1,binding result,GST-E2F1 [1],no binding
B2,binding result,GST-E2F1 [2]; [5],binds
B3,binding result,GST-E2F1 [2]; blunt,no binding
B4,binding result,GST-E2F1 [1],binds
B5,binding result,GST-E2F1 [2]; blunt,binds
B6,binding result,GST-E2F1 [2]; blunt,no binding
B7,binding result,GST-E2F1 [3],binds
B8,binding result,GST-E2F1 [4],binds
B9,binding result,GST-E2F1 [1],no binding
B10,binding result,GST-E2F1 [2]; blunt,no binding
B11,binding result,GST-E2F1 [2]; blunt,binds
B12,binding result,GST-E2F1 [1]; label: 32P as probe,binds
B13,binding result,GST-E2F1 [2]; blunt,binds
B14,binding result,GST-E2F1 [2]; [5],no binding
